{"source": "patent US20250000946A1", "about": "(WUXI BIOLOGICS IRELAND, published 2025)", "key": {"[1]": {"target": "T1, W3XX115-hPro1.ECD.His, IL2Rα ECD (Homo sapiens (Human), UniProt P01589 22-213)", "T1 construct": "Entry includes the C-terminal 6xHis tag; also called CD25", "T1 sequence": "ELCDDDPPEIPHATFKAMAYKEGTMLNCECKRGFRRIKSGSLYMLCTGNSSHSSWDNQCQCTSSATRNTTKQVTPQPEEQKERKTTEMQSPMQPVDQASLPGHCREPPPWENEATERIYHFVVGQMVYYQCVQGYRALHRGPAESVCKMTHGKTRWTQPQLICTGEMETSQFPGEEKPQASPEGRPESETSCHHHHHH", "assay": "SPR Biacore 8K", "procedure": "(§1) IL-2 variants binding affinity to IL-2 receptor were detected by SPR using Biacore 8K. For IL-2Rα binding assay, each variant was captured on anti-human Fc immobilized CM5 sensor chip (cytiva). W3XX115-hPro1.ECD.His at different concentrations were injected over the sensor chip at a flow rate of 30 uL/min for an association phase of 60 s, followed by 90 s dissociation. The chip was then regenerated by 10 mM Glycine-HCl pH1.5 after each binding cycle. For IL-2Rγ binding assay, IL-2 variants were mixed with W369-hPro2.ECD.His as 1:1 before assay, were detected by SPR using Biacore 8K. W3XX115-hPro1.ECD.His was captured on anti-His immobilized CM5 sensor chip (cytiva). The mixture were injected over the sensor chip as described above. The sensorgrams of blank surface and buffer channel were subtracted from the test sensorgrams. The experimental data was fitted by steady state affinity model. Molecular weight of W3XX115-hPro1.ECD.His or W369-hPro1.ECD.His was used to calculate the molar concentration of analyte.\n(§2) For T3U0.E44-1 and T2U0.E44-33, no binding to IL-2Rα was detected."}, "[2]": {"target": "T2, Human IL-2Rβ/γ (intermediate affinity IL-2 receptor) (human, UniProt P14784 27-551; P31785 23-369)", "T2 construct": "whole, on cells; also called IL-2Rβ/γc; IL-2Rβ (CD122) and γ (CD132)", "T2 sequence (looked up) 1": "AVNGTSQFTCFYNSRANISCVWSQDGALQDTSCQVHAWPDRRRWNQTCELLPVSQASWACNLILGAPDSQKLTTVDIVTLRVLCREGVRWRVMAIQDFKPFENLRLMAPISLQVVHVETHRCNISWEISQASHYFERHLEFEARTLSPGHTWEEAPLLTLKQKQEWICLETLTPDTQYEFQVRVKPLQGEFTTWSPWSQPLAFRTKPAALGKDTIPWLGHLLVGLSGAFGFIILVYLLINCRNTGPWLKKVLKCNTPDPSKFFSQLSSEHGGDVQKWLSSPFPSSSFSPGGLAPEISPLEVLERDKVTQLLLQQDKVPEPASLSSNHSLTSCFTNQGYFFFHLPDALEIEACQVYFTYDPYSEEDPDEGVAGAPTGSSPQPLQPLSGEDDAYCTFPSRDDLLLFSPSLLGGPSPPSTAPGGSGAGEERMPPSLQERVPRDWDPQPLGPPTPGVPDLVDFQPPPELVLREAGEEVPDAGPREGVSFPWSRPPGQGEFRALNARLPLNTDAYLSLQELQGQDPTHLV", "T2 sequence (looked up) 2": "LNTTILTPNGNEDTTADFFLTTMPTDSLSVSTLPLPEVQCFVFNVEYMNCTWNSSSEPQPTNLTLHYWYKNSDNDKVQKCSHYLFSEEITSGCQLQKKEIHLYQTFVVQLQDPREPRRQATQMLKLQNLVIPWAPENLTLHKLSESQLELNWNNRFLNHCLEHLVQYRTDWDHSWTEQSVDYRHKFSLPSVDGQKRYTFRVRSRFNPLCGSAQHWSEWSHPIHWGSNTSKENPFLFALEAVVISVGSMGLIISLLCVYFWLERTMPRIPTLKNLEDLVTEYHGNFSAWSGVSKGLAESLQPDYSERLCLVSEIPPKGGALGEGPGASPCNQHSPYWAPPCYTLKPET", "assay": "FACS, HH cells", "summary_of_the_method": "(§3)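 HH (IL-2Rβ/γ), MJ20 and NK92 (IL-2Rα/β/γ) cells incubated with IL-2/Fc fusion proteins at indicated concentrations, 30 min at 4° C to avoid internalization. Bound protein detected with PE-anti-human Fc, 30 min at 4° C; median fluorescence intensity read by FACS.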"}, "[3]": {"target": "T3, Human IL-2Rα/β/γ complex (high affinity IL-2 receptor) (human, UniProt P01589 22-272; P14784 27-551; P31785 23-369)", "T3 construct": "whole, on cells", "T3 sequence (looked up) 1": "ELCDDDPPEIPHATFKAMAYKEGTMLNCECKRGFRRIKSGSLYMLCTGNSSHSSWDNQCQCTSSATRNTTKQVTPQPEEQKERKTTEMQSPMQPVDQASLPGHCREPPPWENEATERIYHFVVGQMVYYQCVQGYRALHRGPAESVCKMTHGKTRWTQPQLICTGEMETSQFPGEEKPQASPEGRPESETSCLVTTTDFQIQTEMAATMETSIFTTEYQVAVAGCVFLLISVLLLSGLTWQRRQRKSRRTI", "T3 sequence (looked up) 2": "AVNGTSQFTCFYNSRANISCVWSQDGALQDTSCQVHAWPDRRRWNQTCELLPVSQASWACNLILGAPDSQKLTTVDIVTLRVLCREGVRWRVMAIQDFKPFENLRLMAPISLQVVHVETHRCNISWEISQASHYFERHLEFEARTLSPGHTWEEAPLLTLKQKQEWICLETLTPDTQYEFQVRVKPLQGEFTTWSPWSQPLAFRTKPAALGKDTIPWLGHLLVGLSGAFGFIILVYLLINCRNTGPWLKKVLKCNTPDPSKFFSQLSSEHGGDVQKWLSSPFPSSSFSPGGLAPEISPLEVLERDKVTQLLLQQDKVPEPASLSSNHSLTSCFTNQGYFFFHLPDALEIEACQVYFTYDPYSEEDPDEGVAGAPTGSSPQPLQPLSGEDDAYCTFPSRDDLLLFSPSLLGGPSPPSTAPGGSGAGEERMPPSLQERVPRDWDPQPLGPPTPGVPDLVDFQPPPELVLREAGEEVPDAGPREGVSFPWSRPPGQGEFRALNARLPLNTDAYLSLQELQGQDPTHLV", "T3 sequence (looked up) 3": "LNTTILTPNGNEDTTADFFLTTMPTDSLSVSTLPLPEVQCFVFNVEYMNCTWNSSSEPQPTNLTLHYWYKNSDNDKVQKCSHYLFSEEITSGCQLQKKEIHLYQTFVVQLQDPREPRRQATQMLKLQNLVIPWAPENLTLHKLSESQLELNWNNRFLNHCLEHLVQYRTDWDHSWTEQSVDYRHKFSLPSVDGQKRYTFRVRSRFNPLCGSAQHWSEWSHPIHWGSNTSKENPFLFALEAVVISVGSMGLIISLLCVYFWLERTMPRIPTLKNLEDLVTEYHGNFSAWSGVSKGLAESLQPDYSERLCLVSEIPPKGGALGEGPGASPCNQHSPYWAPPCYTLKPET", "assay": "FACS, MJ20 cells", "procedure": "(§4) Human cutaneous T cell lymphoma HH cells, malignant non-Hodgkin's lymphoma NK92 cells and cutaneous T cell lymphoma MJ20 cells were used for binding assay. They both constitutively express IL-2Rβ (CD122) and […] (CD132), and NK92 and MJ20 also expresses IL-2Rα (CD25). HH, NK92 and MJ20 cells were cultured following ATCC guidance, then transferred to a 96-plate for binding analysis. Cells were incubated with IL-2/Fc fusion proteins at the indicated concentrations for 30 min at 4° C. to avoid internalization. Binding was detected by 2nd antibody of PE-anti-human Fc at 4° C. for another 30 min. The median fluorescence intensity (MFI) on HH and NK92 cells was measured using FACS."}, "[4]": {"target": "T2, Human IL-2Rβ/γ (intermediate affinity …)", "assay": "cell-based or functional assay"}, "[5]": {"target": "T3, Human IL-2Rα/β/γ complex (high affinity …)", "assay": "cell-based or functional assay"}, "[6]": {"target": "T2, Human IL-2Rβ/γ (intermediate affinity …)", "assay": "FACS, HH cells; EC50 fold vs T2U0.E44-1", "summary_of_the_method": "as §3"}, "[7]": {"target": "T3, Human IL-2Rα/β/γ complex (high affinity …)", "assay": "FACS, MJ20 cells; EC50 fold vs T2U0.E44-1", "procedure": "as §4\nMutations of F42 or R38 were involved in T2U0.E44-26 to generate IL-2 variants."}, "[8]": {"target": "T4, W369-hPro2.ECD.His, IL2Rβ ECD (human, UniProt P14784 27-239)", "T4 construct": "Entry includes linker and C-terminal 6xHis tag; also called CD122", "T4 sequence": "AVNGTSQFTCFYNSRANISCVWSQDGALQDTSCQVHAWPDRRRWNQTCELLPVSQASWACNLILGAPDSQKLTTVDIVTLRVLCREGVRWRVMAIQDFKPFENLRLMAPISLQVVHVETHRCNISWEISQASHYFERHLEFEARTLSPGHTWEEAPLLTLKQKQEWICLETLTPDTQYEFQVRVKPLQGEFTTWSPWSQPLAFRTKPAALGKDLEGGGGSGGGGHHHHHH", "assay": "SPR Biacore 8K; set-up for IL-2Rβ not described"}, "[9]": {"target": "T1, W3XX115-hPro1.ECD.His, IL2Rα ECD", "assay": "SPR Biacore 8K; variant captured via anti-human Fc, IL-2Rα ECD-His injected; steady state", "procedure": "as §1, §2"}}}
{"binder": "W3XX115-T2U0.E44-33.uIgG4V322 (Fc fusion) APTSSSTKKTQLQLEHLLLDLQMILNGINNYKNPKLTWMLTFKFYMPKKATELKHLQCLEEELKPLEEVLNLAQSKNFHLRPRDLISNINVIVLELKGSETTFMCEYADETATIVEFLNRWITFCQSILESKYGPPCPPCPAPEAAGGPSVFLFPPKPKDTLMISRTPEVTCVVVDVSQEDPEVQFNWYVDGVEVHNAKTKPREEQFNSTYRVVSVLTVLHQDWLNGKEYKCKVSNKGLPSSIEKTISKAKGQPREPQVYTLPPCQEEMTKNQVSLWCLVKGFYPSDIAVEWESNGQPENNYKTTPPVLDSDGSFFLYSRLTVDKSRWQEGNVFSCSVMHEALHNHYTQKSLSLSLG heavy: EIQLQQSGPELVKPGASVKVSCKASGYSFTDYNMYWVKQSHGESLEWIGYIDPYNGGTRYNQKFKGKATLTVDKSSSTAFMHLNSLTSEDSAVYYCARNGHWDGAWFAYWGQGTLVTVSAASTKGPSVFPLAPCSRSTSESTAALGCLVKDYFPEPVTVSWNSGALTSGVHTFPAVLQSSGLYSLSSVVTVPSSSLGTKTYTCNVDHKPSNTKVDKRVESKYGPPCPPCPAPEAAGGPSVFLFPPKPKDTLMISRTPEVTCVVVDVSQEDPEVQFNWYVDGVEVHNAKTKPREEQFNSTYRVVSVLTVLHQDWLNGKEYKCKVSNKGLPSSIEKTISKAKGQPREPQVCTLPPSQEEMTKNQVSLSCAVKGFYPSDIAVEWESNGQPENNYKTTPPVLDSDGSFFLVSRLTVDKSRWQEGNVFSCSVMHEALHNHYTQKSLSLSLG light: DIQMNQSPSSLSASLGDTITITCHASQNINVWLSWYQQKPGNIPKLLIYKASNLHTGVPSRFSGSRSGTGFTLTISSLQPEDIATYYCHQGQSYPFTFGSGTKLEIKRTVAAPSVFIFPPSDEQLKSGTASVVCLLNNFYPREAKVQWKVDNALQSGNSQESVTEQDSKDSTYSLSSTLTLSKADYEKHKVYACEVTHQGLSSPVTKSFNRGEC", "values": [{"measurement": "fold affinity reduction compared to T2U0.E44-1", "setting": "[1]", "value": "~10", "unit": "fold"}, {"measurement": "EC50", "setting": "[2]", "value": 0.76, "unit": "µM"}, {"measurement": "EC50", "setting": "[3]", "value": 0.627, "unit": "µM"}, {"measurement": "Human CD8+ T Potency EC50 (STAT5 phosphorylation)", "setting": "[4]", "value": 0.149, "unit": "µM"}, {"measurement": "Human CD8+ T Potency reduction", "setting": "[4]", "value": 41, "unit": "fold"}, {"measurement": "Human Treg Potency EC50 (STAT5 phosphorylation)", "setting": "[5]", "value": 0.00042, "unit": "µM"}, {"measurement": "Human Treg Potency reduction", "setting": "[5]", "value": 302, "unit": "fold"}, {"measurement": "Affinity reduction", "setting": "[6]", "value": 15, "unit": "fold"}, {"measurement": "Affinity reduction", "setting": "[7]", "value": 13.7, "unit": "fold"}, {"measurement": "Kd", "setting": "[8]", "value": 5.87, "unit": "µM"}, {"measurement": "Kd", "setting": "[9]", "value": 1.03, "unit": "µM"}]}
